# Data taken from US20220281969A1 (ANTLERA THERAPEUTICS, published 2022).
# Substitutions are numbered along the chain they refer to.
# T1: recombinant human LRP6-Fc chimera (human, UniProt O75581 20-1370)
# T1 construct: extracellular domain; also called human LRP6 chimera; not shown: Fc part of the chimera
# T1 sequence (looked up): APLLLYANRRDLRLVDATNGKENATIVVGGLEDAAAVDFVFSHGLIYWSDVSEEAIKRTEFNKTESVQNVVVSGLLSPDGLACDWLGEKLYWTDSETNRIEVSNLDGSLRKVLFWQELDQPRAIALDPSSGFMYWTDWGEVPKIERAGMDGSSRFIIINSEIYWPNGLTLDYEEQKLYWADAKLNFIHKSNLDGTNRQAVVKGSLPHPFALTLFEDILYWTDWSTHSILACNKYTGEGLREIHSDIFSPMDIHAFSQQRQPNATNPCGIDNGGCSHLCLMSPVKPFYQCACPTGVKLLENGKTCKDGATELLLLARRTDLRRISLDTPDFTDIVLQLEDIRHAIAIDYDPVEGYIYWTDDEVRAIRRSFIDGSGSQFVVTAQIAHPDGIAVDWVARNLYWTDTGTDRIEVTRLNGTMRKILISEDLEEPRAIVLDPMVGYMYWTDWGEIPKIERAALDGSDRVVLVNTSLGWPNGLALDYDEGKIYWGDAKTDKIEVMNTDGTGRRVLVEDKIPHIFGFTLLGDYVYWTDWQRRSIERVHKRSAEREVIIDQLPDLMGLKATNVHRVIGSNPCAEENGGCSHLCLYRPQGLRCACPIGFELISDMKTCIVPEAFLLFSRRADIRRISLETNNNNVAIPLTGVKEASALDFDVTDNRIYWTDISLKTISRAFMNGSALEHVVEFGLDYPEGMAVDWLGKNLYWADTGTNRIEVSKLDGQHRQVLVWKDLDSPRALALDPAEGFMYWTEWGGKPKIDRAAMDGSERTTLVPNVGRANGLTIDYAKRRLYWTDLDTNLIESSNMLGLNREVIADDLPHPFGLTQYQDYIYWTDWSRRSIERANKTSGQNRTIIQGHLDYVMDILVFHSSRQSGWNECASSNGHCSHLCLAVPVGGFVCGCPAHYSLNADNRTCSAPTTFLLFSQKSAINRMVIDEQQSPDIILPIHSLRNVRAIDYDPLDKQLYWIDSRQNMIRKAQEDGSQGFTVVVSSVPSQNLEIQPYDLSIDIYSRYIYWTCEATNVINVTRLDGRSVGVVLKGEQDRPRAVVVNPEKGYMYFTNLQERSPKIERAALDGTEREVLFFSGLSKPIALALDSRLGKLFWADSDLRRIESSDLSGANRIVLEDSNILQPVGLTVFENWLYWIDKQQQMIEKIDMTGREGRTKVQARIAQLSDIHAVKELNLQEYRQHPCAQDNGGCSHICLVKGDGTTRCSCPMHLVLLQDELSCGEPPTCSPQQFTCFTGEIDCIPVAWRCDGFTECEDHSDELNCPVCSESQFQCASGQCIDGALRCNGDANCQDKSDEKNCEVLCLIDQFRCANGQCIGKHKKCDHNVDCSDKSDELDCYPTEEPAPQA
# T2: recombinant mouse LRP5-His chimera (mouse, UniProt Q91VN0 31-1383)
# T2 construct: extracellular domain; not shown: His tag
# T2 sequence (looked up): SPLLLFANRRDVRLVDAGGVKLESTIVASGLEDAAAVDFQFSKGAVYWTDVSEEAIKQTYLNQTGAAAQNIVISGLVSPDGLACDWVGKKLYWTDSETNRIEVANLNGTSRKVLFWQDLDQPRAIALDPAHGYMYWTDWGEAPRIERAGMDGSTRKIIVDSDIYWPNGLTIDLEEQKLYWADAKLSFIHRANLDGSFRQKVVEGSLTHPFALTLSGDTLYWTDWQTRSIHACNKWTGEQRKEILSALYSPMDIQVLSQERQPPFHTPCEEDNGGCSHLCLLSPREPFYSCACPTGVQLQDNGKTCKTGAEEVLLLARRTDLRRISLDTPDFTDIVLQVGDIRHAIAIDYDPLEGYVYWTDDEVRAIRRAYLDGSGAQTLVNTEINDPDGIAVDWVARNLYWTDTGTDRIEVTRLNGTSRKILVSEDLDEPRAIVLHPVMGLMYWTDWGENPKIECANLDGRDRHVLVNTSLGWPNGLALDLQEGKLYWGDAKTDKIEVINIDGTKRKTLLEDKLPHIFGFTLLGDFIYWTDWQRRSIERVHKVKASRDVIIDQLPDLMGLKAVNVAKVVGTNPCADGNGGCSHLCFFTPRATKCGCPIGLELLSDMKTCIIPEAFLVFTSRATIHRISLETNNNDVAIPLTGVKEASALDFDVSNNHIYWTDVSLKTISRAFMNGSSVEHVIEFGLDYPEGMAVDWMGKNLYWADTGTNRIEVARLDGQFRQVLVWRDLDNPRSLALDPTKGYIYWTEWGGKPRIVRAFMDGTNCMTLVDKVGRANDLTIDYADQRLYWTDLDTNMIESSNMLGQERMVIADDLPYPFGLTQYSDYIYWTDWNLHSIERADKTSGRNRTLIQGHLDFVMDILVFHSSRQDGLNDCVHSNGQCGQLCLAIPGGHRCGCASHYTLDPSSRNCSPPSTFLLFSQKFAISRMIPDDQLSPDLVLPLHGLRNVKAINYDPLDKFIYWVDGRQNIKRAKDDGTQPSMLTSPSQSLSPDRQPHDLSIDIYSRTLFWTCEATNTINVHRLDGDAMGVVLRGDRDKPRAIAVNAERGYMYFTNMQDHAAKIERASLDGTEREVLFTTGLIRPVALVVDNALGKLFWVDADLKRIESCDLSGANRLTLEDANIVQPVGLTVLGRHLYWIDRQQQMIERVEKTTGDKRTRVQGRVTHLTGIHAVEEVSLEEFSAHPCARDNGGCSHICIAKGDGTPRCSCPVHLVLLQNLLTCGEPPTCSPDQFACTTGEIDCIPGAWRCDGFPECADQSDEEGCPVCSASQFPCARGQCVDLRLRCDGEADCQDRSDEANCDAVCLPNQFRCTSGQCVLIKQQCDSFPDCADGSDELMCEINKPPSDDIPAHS
# B1: LRP6-A10 IgG1 antibody (antibody, V domains shown)
# VH: EVQLVESGGGLVQPGGSLRLSCAASGFNISYSSIHWVRQAPGKGLEWVAYISSYYGYTYYADSVKGRFTISADTSKNTAYLQMNSLRAEDTAVYYCARAHYFPWAGAMDYWGQGTLVTVSS
# VL: DIQMTQSPSSLSASVGDRVTITCRASQSVSSAVAWYQQKPGKAPKLLIYSASSLYSGVPSRFSGSRSGTDFTLTISSLQPEDFATYYCQQYSWGPFTFGQGTKVEIKR
# notes: Tested as purified full length IgG1
# B2: LRP6-A10 Fab protein (Fab, V domains shown)
# VH: B1 VH
# VL: B1 VL
# B3: LRP6-G3 IgG1 antibody (antibody, V domains shown)
# VH: EVQLVESGGGLVQPGGSLRLSCAASGFNISSYYIHWVRQAPGKGLEWVASIYSSYGYTSYADSVKGRFTISADTSKNTAYLQMNSLRAEDTAVYYCARTVRGSKKPYFSGWAMDYWGQGTLVTVSS
# VL: DIQMTQSPSSLSASVGDRVTITCRASQSVSSAVAWYQQKPGKAPKLLIYSASSLYSGVPSRFSGSRSGTDFTLTISSLQPEDFATYYCQQYYWPITFGQGTKVEIKR
# notes: as for B1
# B4: LRP6-A1 IgG1 antibody (antibody, V domains shown)
# VH: B3 VH with I29L, S31Y
# VL: B3 VL
# notes: Tested as purified full length IgG1; Synthetic antibody on a human framework, detected with anti-kappa antibody
# B5: LRP6-G9 IgG1 antibody (antibody, V domains shown)
# VH: B3 VH with S30Y, G56S
# VL: B3 VL
# notes: as for B1
# B6: LRP6-B6 IgG1 antibody (antibody, V domains shown)
# VH: B1 VH with Y50S, S53P, A99S, H100S, A105F, G106S
# VL: B3 VL with W93F, P94L
# notes: as for B1
# Experiments:
# [1] = target: full-length LRP6 receptor expressed on the surface of cell lines (UniProt O75581 20-1613, limits assumed); assay: cell-based or functional assay
# [2] = target: T1, recombinant human LRP6-Fc chimera; assay: multipoint competitive ELISA; human LRP6-Fc chimera titrated against OD450 of the IgG1; non-linear regression
# Description: (§1) The full length IgG1s were purified and a single-point ELISA was done to determine the specificity of the antibodies. […] A multipoint competitive ELISA was used to determine the relative affinities of the antibodies to the recombinant antigen.
# Table 3 reports the IC50 of LRP6 antibodies as determined by competitive ELISA. The log of the recombinant human LRP6-Fc chimera concentration (x-axis) was plotted against the OD450 reading of the antibody (y-axis). The IC50 was determined by non-linear regression analysis.
# [3] = target: T2, recombinant mouse LRP5-His chimera; assay: single-point ELISA, IgG1 on coated antigen
# Description: FIGS. 1a and 1b show LRP six antibodies. (A) The amino acid sequences of the complementarity determining regions (CDR) of the heavy (H) and the light (L) chains are presented. The antibodies were grouped into unique epitopes as determined by competitive ELISAs. (B) Single-point ELISAs were performed on 96-well Maxisorb immune plates coated with the […] of mouse LRP5, mouse LRP6 and human LRP6 chimeras. The plates were incubated with the purified Fab or IgG1 at the concentrations indicated followed by incubation with horseradish peroxidase (HRP)-conjugated anti-kappa antibody. The wells were washed eight times followed by incubation with 3,3′,5,5′-tetramethylbenzidine/H₂O₂ peroxidase (TMB) substrate for 5-10 min. The reaction was stopped by adding one M H₃PO₄ and the absorbance was measured spectrometrically at 450 nm in a microtiter plate reader.
# as §1
Binder,"functional IC50, Wnt3aCM-stimulated TOPflash reporter activity (MDAMB231, U2OS, H23 cells) [1]",IC50 [2],binding result [3],"functional IC50, Wnt3aCM-stimulated TOPflash reporter activity (MDAMB231 cells) [1]"
B1,< 0.3 nM,6.29 nM,no binding,
B2,,,,< 0.3 nM
B3,,10.2 nM,no binding,
B4,,9.58 nM,no binding,
B5,,6.03 nM,no binding,
B6,,,no binding,
